pKd: −log10 of the molar value. Where only a bound is given, the exact number is not on record here.

Results on 3 substances are retold here after article PMC3579138.

Experiment [1] concerns the target K63-polyubiquitinated Nedd4 (resin-bound GST-Nedd4, autoubiquitinated) (UniProt P46934). Description: pull-down.
The target in experiment [2] is K63-polyubiquitinated Sic1 (UniProt P38634).
Experiment [3] concerns the target K63-linked tetraubiquitin (Homo sapiens) (UniProt P0CG48). The settings on record: cited from earlier work.
In experiment [4] the target is K48-linked tetraubiquitin (Homo sapiens) (UniProt P0CG48). Particulars: cited from earlier work.

K63-polyubiquitinated Nedd4 (resin-bound GST-Nedd4, autoubiquitinated), sequence (P46934 whole entry): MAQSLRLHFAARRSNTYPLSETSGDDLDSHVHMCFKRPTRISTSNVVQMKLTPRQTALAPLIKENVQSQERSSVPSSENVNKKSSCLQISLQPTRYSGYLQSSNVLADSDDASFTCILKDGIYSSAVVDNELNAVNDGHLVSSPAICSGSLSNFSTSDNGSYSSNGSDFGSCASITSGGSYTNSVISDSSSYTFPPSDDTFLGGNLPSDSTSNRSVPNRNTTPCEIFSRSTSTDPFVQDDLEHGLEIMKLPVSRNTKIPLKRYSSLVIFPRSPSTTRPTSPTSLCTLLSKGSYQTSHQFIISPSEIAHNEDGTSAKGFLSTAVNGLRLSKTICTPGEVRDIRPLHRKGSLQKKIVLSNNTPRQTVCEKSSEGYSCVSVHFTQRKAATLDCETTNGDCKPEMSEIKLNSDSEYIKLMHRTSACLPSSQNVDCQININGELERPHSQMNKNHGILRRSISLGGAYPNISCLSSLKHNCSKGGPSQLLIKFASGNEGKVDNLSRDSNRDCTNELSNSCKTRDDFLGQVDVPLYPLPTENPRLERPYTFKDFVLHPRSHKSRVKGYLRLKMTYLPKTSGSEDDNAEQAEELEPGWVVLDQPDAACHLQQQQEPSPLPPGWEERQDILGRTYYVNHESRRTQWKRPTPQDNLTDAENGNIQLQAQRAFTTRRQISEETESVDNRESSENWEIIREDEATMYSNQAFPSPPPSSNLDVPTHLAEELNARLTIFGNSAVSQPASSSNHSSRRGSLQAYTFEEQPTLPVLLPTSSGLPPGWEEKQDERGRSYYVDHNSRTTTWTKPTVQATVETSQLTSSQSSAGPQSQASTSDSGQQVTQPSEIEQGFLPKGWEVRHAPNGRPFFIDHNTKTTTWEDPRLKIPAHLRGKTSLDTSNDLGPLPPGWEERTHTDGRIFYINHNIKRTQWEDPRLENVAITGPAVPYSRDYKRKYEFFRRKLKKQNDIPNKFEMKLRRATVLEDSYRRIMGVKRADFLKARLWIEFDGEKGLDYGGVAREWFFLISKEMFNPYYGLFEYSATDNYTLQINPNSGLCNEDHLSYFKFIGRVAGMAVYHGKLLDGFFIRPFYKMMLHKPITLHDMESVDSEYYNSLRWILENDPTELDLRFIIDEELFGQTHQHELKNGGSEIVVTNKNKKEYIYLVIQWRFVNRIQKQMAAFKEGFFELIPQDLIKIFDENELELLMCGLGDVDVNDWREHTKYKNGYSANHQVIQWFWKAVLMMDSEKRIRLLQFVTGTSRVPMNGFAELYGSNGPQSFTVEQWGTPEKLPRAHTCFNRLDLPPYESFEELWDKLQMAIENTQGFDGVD
hHR23A UBA2, sequence (P54725 315-361): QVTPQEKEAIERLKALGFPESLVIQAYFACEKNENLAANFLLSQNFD
Hrs, purified recombinant, sequence (O14964 whole entry): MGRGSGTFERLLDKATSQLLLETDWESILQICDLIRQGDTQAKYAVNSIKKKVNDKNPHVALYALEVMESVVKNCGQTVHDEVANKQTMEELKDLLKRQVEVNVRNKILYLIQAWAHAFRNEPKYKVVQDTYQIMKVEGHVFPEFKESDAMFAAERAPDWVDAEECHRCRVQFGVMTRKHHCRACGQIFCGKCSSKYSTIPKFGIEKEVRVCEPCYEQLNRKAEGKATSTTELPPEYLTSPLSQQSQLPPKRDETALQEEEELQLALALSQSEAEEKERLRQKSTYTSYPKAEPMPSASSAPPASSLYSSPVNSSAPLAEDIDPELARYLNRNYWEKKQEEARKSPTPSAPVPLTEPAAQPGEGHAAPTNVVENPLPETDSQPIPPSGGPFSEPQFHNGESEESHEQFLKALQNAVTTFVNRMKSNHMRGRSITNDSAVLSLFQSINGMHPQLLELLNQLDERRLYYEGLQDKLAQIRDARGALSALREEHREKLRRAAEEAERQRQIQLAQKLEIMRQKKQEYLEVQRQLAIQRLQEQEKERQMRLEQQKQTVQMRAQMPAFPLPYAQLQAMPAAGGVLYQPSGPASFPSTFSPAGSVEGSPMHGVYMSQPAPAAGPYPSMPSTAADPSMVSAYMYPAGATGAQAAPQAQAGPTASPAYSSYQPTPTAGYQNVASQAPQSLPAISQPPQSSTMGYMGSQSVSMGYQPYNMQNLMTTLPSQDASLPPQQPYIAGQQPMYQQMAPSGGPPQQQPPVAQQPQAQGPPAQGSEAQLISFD

In the case of “26S proteasomes purified from rabbit muscle (complex)”, in experiment [1], the percent binding with lysate of cells with Hrs and STAM knocked down was found to be 35%; the percent binding with lysate of control cells stood at 19%; the percent reduction of binding by the cell extract is below 80%.

“Hrs, purified recombinant (from UniProt O14964 1-777) (natural protein)” registered a percent decrease of conjugate binding to proteasomes at 80nM in experiment [2] of 80%.

In general, pKd refers to −log10 of the Kd, conventionally taken in molar units. As to hHR23A UBA2 (from UniProt P54725), the pKd is 4.55 in experiment [3] and 5.10 in experiment [4].
